30 sequences from the supplement of paper PMC9170038 can be followed below.

The data set deals with MS2 coat protein. Description: apparent KD of MS2 coat protein; designed switch direction (-1 OFF switch, 1 ON switch): -1; higher = weaker reporter binding. In outline:
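Stalled E. coli RNA polymerase transcribed designed RNA switches on Illumina chips, which were then titrated with SNAP-549-labelled MS2 coat protein, doubling from 0.7 or 1.5 nM to 3 µM. Steps lasted from 0.8–1.5 h at the lowest concentration to 10–20 min at the highest. The apparent KD is each design's median over clusters of curve-fitted normalised fluorescence.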

[1] abbreviates: Eterna round: R95, input ligand: FMN 200 uM.
[2] abbreviates: Eterna round: R95, input ligand: microRNA oligo, concentration not stated.
The mark [3] stands for this setting: Eterna round: R95, input ligand: none.
[4] abbreviates: input ligand: microRNA oligo, concentration not stated.

As for “AGUUGGUCAGGAUAUUCUAUUAAUUACAUGAGGAUCACCCAUGUGAAUGGACAAGGGUGUGAAGAAGGGACUGGCG [Omei Ex5 A17c] (Eterna round: R97, puzzle: Exclusion 5)”, the “apparent KD of MS2 coat protein” value (input ligand: FMN 200 uM) is 692 nM and the “apparent KD of MS2 coat protein” value (input ligand: none) was determined as 1780 nM.
Turning to “AGUUGUUGUUUCCGUUCUUACAUGAGGAUCACCCAUGUUUCUUGUCGUGCUCGCGUUGCUCGUCAGACUUCCUGUUG [salish99_TOv1_r3_066] (puzzle: Sensor v3, turn-off variant 1)”, the “apparent KD of MS2 coat protein” value under setting [1] came to 77.3 nM, the “apparent KD of MS2 coat protein” value under setting [2] came out at 93.1 nM and the “apparent KD of MS2 coat protein” value under setting [3] came to 121 nM.
Take “AUAAAAGAGUUAGGAUAUCGGAAAGGAAGUGUACGAGAAGGAACGGUAUCCUCGGAAAGACAUGAGGAUCACCCAUGUAGAAAA [PowerStrip EXNG 1.6] (Eterna round: R96, puzzle: Exclusion NG 1)”: the “apparent KD of MS2 coat protein” value by setting is: (input ligand: FMN 200 uM) 34.9 nM; under setting [4], 23.4 nM; (input ligand: none) 35.4 nM.
For “AUAAAGAGGCUAGGAUAUACAUCGGUGCGAAAAGACGUAAUCCUUUGAACAUGAGGAUCACCCAUGUAGAAGGAGCAGACGGAA [Quriored] (Eterna round: R96, puzzle: Exclusion NG 2)” the same measures were 44.5 nM, 11.7 nM and 17.4 nM.
On to “AUAAAUAAGGAGGAUAUCGAAUCGGAAACGAUUCGAGAAGGCCUAACAUGAGGAUCACCCAUGUUCCUUAAAUA [Mat - Exclusion 6 - Eli Mod - D63] (puzzle: Exclusion 6)”, for which the “apparent KD of MS2 coat protein” value runs as follows: under setting [1], 30.2 nM; under setting [2], 17.6 nM; under setting [3], 20.8 nM.
On to “AUAAAUAGCGAGGAUAUCGUAUCGGAAACGAUACGAGAAGGCGUAACAUGAGGAUCACCCAUGUGUCCUCAAUA [Mat - Exclusion 6 - Eli Mod - D6] (Eterna round: R97, puzzle: Exclusion 6)”, for which the “apparent KD of MS2 coat protein” value is 801 nM (input ligand: FMN 200 uM) and 87.2 nM (input ligand: none).
Take “AUAAAUCAUGUAGGAUAUGCGUGGAGAAGCUAUGCAGAAGGACAUGAGGAUCACCCAUGUGCUUCCGUCUGAGUACAGACGGAA [Mat - Exclusion NG 1 - Mod of JL - D37] (Eterna round: R96, puzzle: Exclusion NG 1)”: the “apparent KD of MS2 coat protein” value by setting is: (input ligand: FMN 200 uM) 129 nM; under setting [4], 99.4 nM; (input ligand: none) 86.5 nM.
“AUAAAUGAGGAGGAUAUCGAAUCGGAAACGAUUCGAGAAGGCCUAACAUGAGGAUCACCCAUGUUCCUUAAAUA [Mat - Exclusion 6 - Eli Mod - D64] (puzzle: Exclusion 6)”: the “apparent KD of MS2 coat protein” value under setting [2] is 25.3 nM.
On to “AUAAAUGAUGAGGAUAUCACUAGCGAUAGCUAGUGAGAAGGCAUCACAUGAGGAUCACCCAUGUGAUCCAAUAA [Mod6 Ex6/6-A4 by Brourd] (Eterna round: R97, puzzle: Exclusion 6)”, for which the “apparent KD of MS2 coat protein” value turned out to be 479 nM (input ligand: FMN 200 uM) and 359 nM (input ligand: none).
Consider “AUAACAAGCUUUUUGUUCGUAGAACAUGAUGCUCGAGUCACAUGAGGAUCACCCAUGUCAUCCAGAUUGAUAGUUGA [JR_SV3TOV2_Sub060] (puzzle: Sensor v3, turn-off variant 2)”, for which the “apparent KD of MS2 coat protein” value runs as follows: under setting [1], 39.5 nM; under setting [2], 51.2 nM; under setting [3], 40.3 nM.
Turning to “AUAACAUGCUGGUGAUCAUACAUGAGGAUCACCCAUGUAACAAGCUUUUUGUUCGUCUUAUAAUUUAAGAUCACCAG [Stov1/7-B2] (Eterna round: R97, puzzle: Sensor, turn-off variant 1)”, the “apparent KD of MS2 coat protein” value came to 21.7 nM (input ligand: FMN 200 uM) and 19.2 nM (input ligand: none).
Consider “AUAAUAAAGGAGGAUAUCGAUUCGGAAACGAAUCGAGAAGGUCUAACAUGAGGAUCACCCAUGUUCCUCAAAUA [Mat - Exclusion 6 - Eli Mod - D51] (puzzle: Exclusion 6)”, for which the “apparent KD of MS2 coat protein” value under setting [1] worked out at 58 nM, the “apparent KD of MS2 coat protein” value under setting [2] was found to be 35.6 nM and the “apparent KD of MS2 coat protein” value under setting [3] was 27.9 nM.
For the sequence “AUAAUAAAGGAGGAUAUCGUUUCGGAAACGAAACGAGAAGGUCUAACAUGAGGAUCACCCAUGUUCCUCAAAUA [Mat - Exclusion 6 - Eli Mod - D52] (puzzle: Exclusion 6)”, the “apparent KD of MS2 coat protein” value by setting is: under setting [1], 66.4 nM; under setting [2], 33.3 nM; under setting [3], 53.5 nM.
Regarding “AUAAUAGUAGGAGGAUAUCGCAGGAUAUGGGCCUUAAAACAUAACAUGAGGAUCACCCAUGUGCACGAGAAGGCCUGGAAAAUA [Orsolavera] (Eterna round: R96, puzzle: Exclusion NG 2)”, the “apparent KD of MS2 coat protein” value (input ligand: FMN 200 uM) was 25.7 nM, the “apparent KD of MS2 coat protein” value under setting [4] is 11.5 nM and the “apparent KD of MS2 coat protein” value (input ligand: none) was determined as 18.6 nM.
For the sequence “AUAAUAUAUGUAGGAUAUCUGCACGUGUAGUGCAGAGAAGGACAUGAGGAUCACCCAUGUAAUUAAGAUCAAUUAUUAAAUUAU [ENG1/4-B3] (Eterna round: R96, puzzle: Exclusion NG 1)”, the “apparent KD of MS2 coat protein” value was 83.8 nM (input ligand: FMN 200 uM), 35.5 nM under setting [4] and 38.1 nM (input ligand: none).
Take “AUAAUAUAUGUAGGAUAUCUGCACGUUUAGUGCAGAGAAGGACAUGAGGAUCACCCAUGUAAUUAAGAUCAAUUAUUAAAUUAU [ENG1/4-B2] (Eterna round: R96, puzzle: Exclusion NG 1)”: the “apparent KD of MS2 coat protein” value is, setting by setting: (input ligand: FMN 200 uM) 59.5 nM; under setting [4], 29.5 nM; (input ligand: none) 40.8 nM.
With “AUAAUGUAAGGAUAUCAGUCGACUAGCCUCGGCUAGUCGACUGAGAAGGUACAUGAGGAUCACCCAUGUAGAUC [E4/19-A2] (Eterna round: R97, puzzle: Exclusion 4)”, the “apparent KD of MS2 coat protein” value runs as follows: (input ligand: FMN 200 uM) 352 nM; (input ligand: none) 47.8 nM.
As to “AUAAUGUAAGGAUAUCAGUCGACUAGCGAUAGCUAGUCGACUGAGAAGGUACAUGAGGAUCACCCAUGUGAUUA [E4/10-A4] (Eterna round: R97, puzzle: Exclusion 4)”, the “apparent KD of MS2 coat protein” value stood at 421 nM (input ligand: FMN 200 uM) and 167 nM (input ligand: none).
The matching figures for “AUAAUGUAAGGAUAUCAGUCGACUAGCUGCGGCUAGUCGACUGAGAAGGUACAUGAGGAUCACCCAUGUGGUUC [E4/11-A3] (Eterna round: R97, puzzle: Exclusion 4)”: 185 nM and 304 nM.
As for “AUAAUGUAAGGAUAUCAGUCGACUAGCUUCGGCUAGUCGACUGAGAAGGUACAUGAGGAUCACCCAUGUAGAUC [E4/19-A1] (Eterna round: R97, puzzle: Exclusion 4)”, the “apparent KD of MS2 coat protein” value was found to be 363 nM (input ligand: FMN 200 uM) and 66 nM (input ligand: none).
For “AUAAUGUAAGGAUAUCAGUCGUACAGCUGCGGCUGUACGACUGAGAAGGUACAUGAGGAUCACCCAUGUGGUCA [E4/9-A3] (Eterna round: R97, puzzle: Exclusion 4)” the same measures were 324 nM and 694 nM.
Consider “AUAAUGUCAGGAUAUACAUGAGGAUCACCCAUGUUAGAAAGAGAAGAAGAGAAACUAUGUAGAAGGGACAAUAA [Hair Trigger] (puzzle: Exclusion 3)”, for which the “apparent KD of MS2 coat protein” value by setting is: under setting [1], 43.7 nM; under setting [2], 20.6 nM; under setting [3], 29.1 nM.
With “AUAAUGUCAGGAUAUCAGAAGUUUAACCUCGGUUAAACUUCUGAGAAGGGACAUGAGGAUCACCCAUGUGAUUA [E4/3-B2] (Eterna round: R97, puzzle: Exclusion 4)”, the “apparent KD of MS2 coat protein” value by setting is: (input ligand: FMN 200 uM) 68.4 nM; (input ligand: none) 950 nM.
On to “AUAAUGUCAGGAUAUCAGUCGACUAGCUGCGGCUAGUCGACUGAGAAGGGACAUGAGGAUCACCCAUGUAGAUC [E4/18-A3] (Eterna round: R97, puzzle: Exclusion 4)”, for which the “apparent KD of MS2 coat protein” value reads like this: (input ligand: FMN 200 uM) 244 nM; (input ligand: none) 992 nM.
For “AUAAUGUCAGGAUAUCAGUCGACUAGCUUCGGCUAGUCGACUGAGAAGGGACAUGAGGAUCACCCAUGUAGAUC [E4/18-A1] (Eterna round: R97, puzzle: Exclusion 4)” the same measures were 267 nM and 1120 nM.
Consider “AUAAUGUCAGGAUAUCAGUCGUACAGCGAUAGCUGUACGACUGAGAAGGGACAUGAGGAUCACCCAUGUGGUCA [E4/6-A4] (Eterna round: R97, puzzle: Exclusion 4)”, for which the “apparent KD of MS2 coat protein” value was found to be 13.3 nM (input ligand: FMN 200 uM) and 18.1 nM (input ligand: none).
As to “AUAAUGUCAGGAUAUCAGUCGUACAGCGAUAGCUGUACGACUGAGAAGGGACAUGAGGAUCACCCAUGUGGUUA [E4/7-A4] (Eterna round: R97, puzzle: Exclusion 4)”, the “apparent KD of MS2 coat protein” value (input ligand: FMN 200 uM) turned out to be 169 nM and the “apparent KD of MS2 coat protein” value (input ligand: none) is 1910 nM.
For “AUAAUGUCAGGAUAUCAGUCGUACAGCUUCGGCUGUACGACUGAGAAGGGACAUGAGGAUCACCCAUGUGGUCA [E4/6-A1] (Eterna round: R97, puzzle: Exclusion 4)” the same measures were 61 nM and 50.9 nM.
On to “AUAAUGUGAGGAUAUCAGUAAGAAUGCCUCGGCAUUCUUACUGAGAAGGCACAUGAGGAUCACCCAUGUGAUUA [E4/4-B2] (Eterna round: R97, puzzle: Exclusion 4)”, for which the “apparent KD of MS2 coat protein” value runs as follows: (input ligand: FMN 200 uM) 596 nM; (input ligand: none) 182 nM.
For “AUAAUUAAUCGAGGAUAUCAGCACGUGUAGUGCUGAGAAGGCGACAUGAGGAUCACCCAUGUGAUCAAUUAAUAUUAAUAUUAU [ENG1/11-C3] (Eterna round: R96, puzzle: Exclusion NG 1)”, the “apparent KD of MS2 coat protein” value was found to be 1330 nM (input ligand: FMN 200 uM), 565 nM under setting [4] and 866 nM (input ligand: none).
